In the supplement of paper PMC10567573:
± gives the standard deviation.

Assay: protein stability index of a GFP-peptide fusion (GPS, HEK-293T) (PSI 1-6); higher = more stable
Details: c terminus: a fixed tail appended
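Note: 24-mer peptide tiles fused after GFP, lentivirally expressed, FACS-sorted into six equal bins by GFP/DsRed ratio, decoded by Illumina sequencing, PSI is the read-weighted mean bin number.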

| Sequence | protein stability index (treatment: DMSO) | protein stability index (treatment: MLN4924 1 uM, 8 h) |
| --- | --- | --- |
| VNLYLGRSHFLWKEPATMSWLEEN [TCF25] | 2.36 ± 0.53 | 2.54 ± 0.56 |
| RASRLQAPVLVAAPHSTFFDPIVL [LPCAT4] | 2.6 ± 0.31 | 2.71 ± 0.2 |
| ALAHCHQHGLVLRDLKLCRFVFAD [TRIB3] | 2.44 ± 0.43 | 2.23 ± 0.23 |
| RGRFTTYEIRVKTNLPIFKLKEST [SNX3] | 2.54 ± 0.98 | 2.47 ± 0.57 |
| SKAKPKPPKQAQKEQRKQMKGRGQ [TBC1D10A] | 5.02 ± 0.23 | 5.08 ± 0.31 |
| LMKGGADLFVENMPGFPDNIRPSS [APMAP] | 3.66 ± 0.1 | 3.77 ± 0.33 |
| PHGTLRVCTISSTGPLQPQPKKPE [PKD2L1] | 4.42 ± 0.27 | 4.5 ± 0.3 |
| ENSVTHHEVKCQGKPLAGIYRKRE [KMT5A] | 4.34 ± 0.13 | 4.42 ± 0.34 |
| KYRRHFLRFCHNNKKAKRYLLHGL [EIF5] | 2.21 ± 0.2 | 2.27 ± 0.19 |
| RTHTGEKPYKCTLCGENFSHRSNL [ZNF263] | 2.43 ± 0.27 | 2.79 ± 0.53 |
| ASVDYIRKLQKEQQRSKDLESRQR [TFE3] | 4.06 ± 0.24 | 4.18 ± 0.13 |
| NVQILLPVGEPVTNVRLQPAATWN [FCHO1] | 2.32 ± 0.22 | 2.44 ± 0.19 |
| LPSLGCRTSCSSRPCVPPSCHGYT [KRT34] | 2.32 ± 0.26 | 2.2 ± 0.11 |
| STATSITLTWDSGNPEPVSYYIIQ [PTPRD] | 2.83 ± 0.59 | 2.9 ± 0.65 |
| PAPSPAKEERKTEVVMNSQQTPVG [PALM] | 5.52 ± 0.19 | 5.46 ± 0.13 |
| INRLVGLQNTYMGYLDYRKKAIKD [GLT8D2] | 2.7 ± 0.3 | 3.01 ± 0.05 |
| DIREEIRKVVQSLEQTAREILTLL [TSN] | 3.73 ± 0.94 | 3.57 ± 0.3 |
| APWWFWLSLTGVSLAGALGVKFVG [POMT2] | 2.48 ± 0.23 | 2.27 ± 0.15 |
| AKPRATWTLKLDGNLQLDCLAQGW [RTP4] | 2.17 ± 0.24 | 2.33 ± 0.57 |
| EINSHSLFSKWFSESGKLVTKMFQ [TRIP13] | 2.58 ± 0.21 | 2.48 ± 0.42 |
| QRQAIKGAFYRRAQRLRPQDEPRQ [KCNG1] | 3.87 ± 0.24 | 4.16 ± 0.22 |
| FIPSLKYVQWSLPFIVFGATGLTS [SLC22A15] | 3.14 ± 0.22 | 3.33 ± 0.36 |
| IDGKGRGVIATKQFSRGDFVVEYH [KMT5A] | 2.91 ± 0.26 | 3.03 ± 0.35 |

| Sequence | protein stability index (treatment: DMSO) | protein stability index (treatment: MLN4924 1 uM, 8 h) |
| --- | --- | --- |
| NTDVSMENMVTVGFFSCMGTLCIG [KCNK9] | 2.81 ± 0.52 | 2.8 ± 0.61 |
| FMHSFEEKYGRAHPVFYQGTYSQA [FAF2] | 2.18 ± 0.21 | 2.42 ± 0.28 |
| MNKSENLLFAGSSLASQVHAAAVN [INVS] | 3.11 ± 0.24 | 3.35 ± 0.34 |
| EEAPELDEAELDYLMDVLVGTQAL [SERTAD1] | 4.05 ± 0.25 | 4.22 ± 0.16 |
| ALHLAARNGHLATVKLLVEEKADV [RIPK4] | 2.85 ± 0.17 | 3.06 ± 0.3 |
| VKEAPAPTPTSLEVSSPPDTTEEV [PDZK1] | 5.57 ± 0.25 | 5.49 ± 0.3 |
| PKKLLNPVKASRSHQELHRELLMN [FAM107A] | 3.17 ± 0.21 | 3.19 ± 0.29 |
| DKPGTTQIVQLTQQVDTNISVILP [DENND6A] | 3.48 ± 0.23 | 3.68 ± 0.38 |
| NNLAASQLKLDHYRAALRSCSLVL [FKBP8] | 2.62 ± 0.11 | 2.35 ± 0.27 |
| LTCDALTELLAKITNTDVDCLKAC [CCND2] | 2.37 ± 0.28 | 2.34 ± 0.27 |
| QFRVVRCWKMLSPGFDSSVYSDLC [ADAMTSL2] | 2.5 ± 1 | 2.32 ± 0.45 |
| GGLGGGYGGGLGGGFGGGFAGGFV [KRT13] | 2.16 ± 0.25 | 2.1 ± 0.82 |
| LVVALDVDATLEHVQDPQNTVKVQ [INTS4] | 3.03 ± 0.14 | 3.21 ± 0.2 |
| KKFQSEKAAGSVSKSTQFEYAWCL [FIS1] | 2.12 ± 0.22 | 2.33 ± 0.13 |
| FRFIPVLFPNAKKEHVPTWLQNTH [TRAF3IP2] | 2.3 ± 0.61 | 2.6 ± 0.69 |
| LLRDRTGQQSDTAQLELYQLQVES [SCARA5] | 4.42 ± 0.37 | 4.56 ± 0.13 |
| KNDVFICGGYNGEVILGDIWKLNL [KLHDC10] | 2.6 ± 0.84 | 2.33 ± 0.74 |
| VLLAVLPVLLLQITVGLVFLCLQY [MOG] | 3.18 ± 0.24 | 3.13 ± 0.32 |
| QEYQLPYQRVLPLPIFTPAKMGAT [TCAP] | 3.01 ± 0.35 | 3.09 ± 0.18 |
| VTLEASRENSKPRAILKPRKVCVG [PPP2R2B] | 3.54 ± 0.23 | 3.8 ± 0.32 |
| VSVRVQPRGRAHLLPNPYQQDFLG [C22orf15] | 2.2 ± 0.18 | 2.13 ± 0.35 |
| NKSVTLYTVKDKATGEVLGQFYLD [NLN] | 2.13 ± 0.3 | – |
| VSLDISPDLPFQIKPSENHYSLLT [PCDHGC5] | 2.22 ± 0.31 | 2.46 ± 0.17 |

| Sequence | protein stability index (treatment: DMSO) | protein stability index (treatment: MLN4924 1 uM, 8 h) |
| --- | --- | --- |
| CYLSFPDSNSGCLGDTQFCFRFRQ [DENND6A] | 2.25 ± 0.28 | 2.4 ± 0.63 |
| MREQYEAMAERNRRDAEEWFHAKS [KRT13] | 4.81 ± 0.28 | 4.75 ± 0.17 |
| LRLENSSLFSQALKDEEAKVLQLT [CCDC89] | 3.6 ± 0.41 | 3.62 ± 0.61 |
| AGGQTRLQASDRYRDLAGGTGRSA [FCHSD1] | 4.25 ± 0.41 | 4.35 ± 0.28 |
| CWLPLLAGLLPPVPAQKFSALTFL [SMOC2] | 3.54 ± 0.15 | 2.82 ± 0.53 |
| MASSAAGCVVIVGSGVIGRSWAML [CRYL1] | 3.7 ± 0.13 | 2.89 ± 1.8 |
| TISFICRELDAISTNEEEKEENEA [PRIM1] | 5.16 ± 0.26 | 5.16 ± 0.1 |
| DRVGTIKSKVVGDRENGSDNLPSS [TPD52L2] | 5.17 ± 0.29 | 5.17 ± 0.18 |
| NSLWKKNKTICKERLQILCFFLLI [NLN] | 2.9 ± 0.4 | 2.4 ± 0.42 |
| AEPAMPGRLYVHPDSPATGAHWMR [TBX5] | 3.5 ± 0.36 | 3.44 ± 0.21 |
| PSLGRVLPDPREACGSSSYVASIV [RBMY1A1] | 2.63 ± 0.36 | 2.94 ± 0.21 |
| HSCVQIKNDVFICGGYNGEVILGD [KLHDC10] | 1.94 ± 0.27 | 2.62 ± 0.42 |
| EEKKLRRSQHARKETEFLRLKRTR [STK38L] | 3.01 ± 0.16 | 3.25 ± 0.27 |
| SGYHYGVWSCEGCKAFFKRSIQGH [ESR2] | 2.03 ± 0.33 | 2.52 ± 0.41 |
| ESYESMELACPAERSGHVAVSDGR [KLHDC2] | 5.08 ± 0.069 | 5.09 ± 0.17 |
| ITALLNVSRRTSEACMTHLHYKWI [DUSP5] | 2.75 ± 0.53 | 2.54 ± 0.32 |
| MTSTGQDSTTTRQRRSRQNPQSPP [HDAC6] | 5.46 ± 0.14 | 5.4 ± 0.12 |
| EFLPQGPVAMRVAKLAINQGMEVD [AUH] | – | 3.82 ± 0.18 |
| EQDSGVQVEGLTVQYLGQAPELLG [ADAMTS4] | 4.38 ± 0.13 | 4.91 ± 0.34 |
| DTDKLLNSASDPSLKDGLSDSDSE [PSD2] | 5.45 ± 0.36 | 5.57 ± 0.074 |
| HRWPPVWYLKEEDHYQRVKREREK [RHOBTB1] | 3.75 ± 0.34 | 4.03 ± 0.28 |
| YKPNPQIYVKLIEECTDLQKEGEF [OAS1] | 3.54 ± 0.28 | 3.53 ± 0.19 |
| ENYLEYRQVPGSDPACYEFLWGPR [MAGEA3] | 3.12 ± 0.34 | 3.17 ± 0.36 |

| Sequence | protein stability index (treatment: DMSO) | protein stability index (treatment: MLN4924 1 uM, 8 h) |
| --- | --- | --- |
| PTELWPQEAVPLGLGLEDADWTQG [TEX19] | 4.56 ± 0.22 | 4.59 ± 0.22 |
| KDTVICAMKITQEPQGLGYWEAWR [SPACA3] | 2.27 ± 0.49 | 2.22 ± 0.23 |
| DNEDSELNGDYGENIYPYEEDKDE [MIA2] | 5.37 ± 0.24 | 4.86 ± 1.1 |
| FLSEEEYWKLQIFFTNVIQALGEH [CCNC] | 2.42 ± 0.96 | 2.36 ± 0.084 |
| FVCQCYSGYALAEDGKRCVAVDYC [MATN2] | 2.29 ± 0.93 | 2.77 ± 0.46 |
| AEHNLVLFRKDVDDATLSRLELER [PRPH] | 4.45 ± 0.19 | 4.51 ± 0.16 |
| IQSKDGKSPLHMTAVHGRFTRSQT [ANKRD44] | 3.84 ± 0.32 | 3.9 ± 0.36 |
| VLRFLPAFVRMKQLIEEGYVGEPL [GFOD1] | 2.2 ± 0.25 | 2.17 ± 0.13 |
| CGDYFPDGITNGASWYSLSKGMQD [CPN1] | 2.52 ± 0.12 | 2.74 ± 0.14 |
| EIDLDSMRNLKASLENSLREVEAR [KRT18] | 4.23 ± 0.28 | 4.23 ± 0.48 |
| PLDDALLSFAHANCTLIISYQKPK [DPCD] | 2.17 ± 0.2 | 2.22 ± 0.21 |
| EMLREVDLNGDGTVDFDEFVMMLS [CABP4] | 4.06 ± 0.25 | 4.17 ± 0.33 |
| NLQCLYCEKTFRDKNTLKDHMRKK [ZNF277] | 3.29 ± 0.42 | 3.39 ± 0.66 |
| GVVDSEDLPLNISREMLQQSKILK [HSP90AB1] | 4.09 ± 0.22 | 4.14 ± 0.28 |
| GHCLLDKPEAPLHLPVTFPGKDYD [ADAMTS4] | 4.14 ± 0.26 | 4.4 ± 0.3 |
| YDAYRTDLEELSLGPRDAGTRGRL [ARFIP2] | 4.1 ± 0.29 | 4.35 ± 0.15 |
| DTLGLGKTRRKTSARDASPTPSTD [NCK2] | 5.36 ± 0.25 | 5.15 ± 0.34 |
| TSIEPSKSSIIPFRALKRPLQFLG [ZER1] | 2.42 ± 0.38 | 2.22 ± 0.16 |
| KCLQGNADGDGGGGQCCRRQDSPS [PCDHGC5] | 5.25 ± 0.29 | 5.21 ± 0.1 |
| YVRRLDFFEKPDYDYLRKLFTDLF [CSNK1G3] | 2.45 ± 0.52 | 2.06 ± 0.27 |
| MEEDIDTRKINNSFLRDHSYATEA [PPP2R2B] | 4.77 ± 0.19 | 4.72 ± 0.12 |
